# Experimental data as given in IntAct's records for PubMed 23105096.
# B1: Ras-related protein Rab-26 (Homo sapiens), Q9ULW5 (parent)
# chain: MSRKKTPKSKGASTPAASTLPTANGARPARSGTALSGPDAPPNGPLQPGRPSLGGGVDFYDVAFKVMLVGDSGVGKTCLLVRFKDGAFLAGTFISTVGIDFRNKVLDVDGVKVKLQMWDTAGQERFRSVTHAYYRDAHALLLLYDVTNKASFDNIQAWLTEIHEYAQHDVALMLLGNKVDSAHERVVKREDGEKLAKEYGLPFMETSAKTGLNVDLAFTAIAKELKQRSMKAPSEPRFRLHDYVKREGRGASCCRP
# Variants of: B1
# Details: with ada2b_human ADRA2B
row,effect of a mutation on the interaction,Variant
1,decreasing interaction strength,MSRKKTPKSKGASTPAASTLPTANGARPARSGTALSGPDAPPNGPLQPGRPSLGGGVDFYDVAFKVMLVGDSGVGKTCLLVRFKDGAFLAGTFISTVGIDFRNKVLDVDGVKVKLQMWDTAGQERFRSVTHAYYRDAHALLLLYDVTNKASFDNIQAWLTEIHEYAQHDVALMLLGIKVDSAHERVVKREDGEKLAKEYGLPFMETSAKTGLNVDLAFTAIAKELKQRSMKAPSEPRFRLHDYVKREGRGASCCRP [N177I]
2,decreasing interaction strength,MSRKKTPKSKGASTPAASTLPTANGARPARSGTALSGPDAPPNGPLQPGRPSLGGGVDFYDVAFKVMLVGDSGVGKNCLLVRFKDGAFLAGTFISTVGIDFRNKVLDVDGVKVKLQMWDTAGQERFRSVTHAYYRDAHALLLLYDVTNKASFDNIQAWLTEIHEYAQHDVALMLLGNKVDSAHERVVKREDGEKLAKEYGLPFMETSAKTGLNVDLAFTAIAKELKQRSMKAPSEPRFRLHDYVKREGRGASCCRP [T77N]

# Variants of: B1
# Details: with ada2b_human ADRA2B
# Remark: another data set of the same source
row,effect of a mutation on the interaction,Variant
1,disrupting interaction strength,MSRKKTPKSKGASTPAASTLPTANGARPARSGTALSGPDAPPNGPLQPGRPSLGGGVDFYDVAFKVMLVGDSGVGKTCLLVRFKDGAFLAGTFISTVGIDFRNKVLDVDGVKVKLQMWDTAGQERFRSVTHAYYRDAHALLLLYDVTNKASFDNIQAWLTEIHEYAQHDVALMLLGIKVDSAHERVVKREDGEKLAKEYGLPFMETSAKTGLNVDLAFTAIAKELKQRSMKAPSEPRFRLHDYVKREGRGASCCRP [N177I]
